Source: the domain aggregation screens of Martell et al. (2025)

assay: soluble fraction after stress (log2 fold change); higher = more stays soluble; pooled small domains, quantitative proteomics; conditions: stress: 75 degC
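Further: 20 min heating vs room temperature control held 20 min.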

Row | Sequence | soluble fraction (log2)
1 | HMLHMKAALGELMSIPGMRSELAGTLFDRGYTSLAQLRAATLDDLERVNGLERADARRIHDFLRKS | -0.251
2 | HMLHQSLVVNAASGRVTVSLDIVPDEDNPYAVLRATDDSDEPLAQVRVAPSFKLNRASALAWIESQFARP | -2.34
3 | HMLHSEDATVVRQAIPLLERHVDAATVAVARRNLAQLEQFGRYPRRNQALGRISNPAENAYLRAER | 0.0695
4 | HMLIDQYPYSIIYRLIPHGRSNAVPAAQIVGLTKLDERSIRIYVEAMRREGHIIASSSKGYYFPASIEE | -3.2
5 | HMLIGLNETESLVLDALIANPMRIDQVSAMLKKDVATTLKFLGGLSVRGLVETLFGGRFAPTKIALHARS | 0.0549
6 | HMLIIMNSDATKEQVDHVTSRVREAGFKDHIMPGAGKVAIGVTGTGDYDQTKLHLEILPGVFKIMRITK | -0.816
7 | HMLIPADETEAKVLSVLSREPLHVDEIRNQAGLPIEKISATLALMELKGMVRQVGGMNYVSV | -0.044
8 | HMLKDKLSDKDFDFYKNKIQIQLQGNPTELKELVRRFSSTEEQQILKTIDYMLDNGFLRIDEDNMIYWK | -0.0419
9 | HMLKDQSIAQLEKNLDDLKGLMRKMFGSSDVPKITKMISDIESSLANFNQSKANKLIVQTTNYISSKL | -0.664
10 | HMLKEDSAYELGLRIFDQALNDYGTSFIDLKEDEYKKVLSIYGYSNPRQLIINIGLGNVIPHLLARDITE | -1.34
11 | HMLKEGIKEKINQLQVYADKNDNIIWYDRVVDILSDKDDSVTDEMIEAAIRTLEEAGISVERKQ | 0.0727
12 | HMLKEGQYSPNHFHWHKMEDIINRGGGTLLIRVYNSLPDEEIDRESDVTVHMDGVTRTVPAGTQLRLE | -0.124
13 | HMLKETGVITASVLNVREDIGTSSNIVAQLKKGMEVNILESRAIAGSETWYRIDAGSIKGWIFGDYI | -3.37
14 | HMLKFGLSQRELQILALLPTDEPLSILAKSLFISESTLKTHLTHIYRKLGVKNRLQAINVARKAGLLK | -1.59
15 | HMLKHSKQRDAIEQFLATRYDHPTAETVYMNLREEYPKLSLATVYRNLSLLAELGNIQKIPTGNGPDRFDG | -0.343
16 | HMLKIAENIYQRRKEKNITQEELADFMMVTKASVSKWETGQSYPDILLLPKLATFFNVTVDELIGYEPQ | -2.72
17 | HMLKIVRSREEVESRLYTIYGNVKGRRLYNFYLSLIIDGLDIVKARTSKNVYYTNIRNLKNAGIDFSQKIN | -2.28
18 | HMLKPKDLHLGDSVRVLSLNLKGTVSSLPDTKGFLFVQMGIMRSKLHISDLQLIDEPVITAP | -2.23
19 | HMLLFSVADIVKRSKRILSFKTDAELAAYFGVSRSTLSNWIARNSIDFPLLLSKMKDVDYTWLILGKGTPG | -3.97
20 | HMLLLHINQMGVTEFSQLELNHVRSWLANLQIKGAARSSITRRVVSVRAFTYWGAKNGWLASDIGRDLVAP | -0.459
21 | HMLLRVGGLVKDGSVRTDNDLGIKFIIEDNLAEVSVLYNGILPDLFREGQGVIAEGKFIDNIFIANEIVA | -0.682
22 | HMLLSHTAQREGELLTFLRGELALSSGLVKRLKWQNAFFLDGAPVHTNARVKPGQEITVRIEE | -1.59
23 | HMLLTEETLPQLKQIVDEFPYFQIARMLYLKNLAVLNDIRFSVELKKMSIYVPDRRKLFTLIEGE | 0.044
24 | HMLLTLPEDIITMVRQGTLSAGHARVLAGLESDEMKMTLARQTITNEWSVRQLENAVALMRKS | -0.906
25 | HMLLTPLEETRLVIEEIVIPQKLTIDLLPRSSAIRKLQHELITHYQLRGTSVGNEPNRRLRIYP | -0.121
26 | HMLMNADVLVKYQEDHWIVISEKASQASDTFDKKEQAVERAKEIAKNKNSSVKVYKQDGTLQDTFDYS | 0.351
27 | HMLMSDEENAEFTKLYRQLVFKLHPDLNPNQTKDEENLWHKVQMAYKGGDLEEMRSLAIILDAQ | 0.0885
28 | HMLMTGSLQTKHGKYYVVVRIPDGLGNTKAKWINTGIPTDGNNKRKAQQRRIEILTELEENKD | -2.47
29 | HMLMYAQDEKEEASNNIPYRLLHMSFTKEQKAELQRAMDVRVPKDIILSYFYPDTPVARMMEIRRQYESA | -0.814
30 | HMLNDKLQTLFSLFPAVDKDLKKKGVTRQILWEQYKRNHPDGVGRSQFNYYYAQWKDQVNPT | -1.02
